# The supplement of paper PMC10567573
# ± gives the standard deviation.
# Assay: protein stability index of a GFP-peptide fusion (GPS, HEK-293T) (PSI 1-6); higher = more stable
# [1] = treatment: DMSO, c terminus: a fixed tail appended
# [2] = treatment: MLN4924 1 uM, 8 h, c terminus: a fixed tail appended
# [3] = treatment: DMSO, c terminus: native
# [4] = treatment: MLN4924 1 uM, 8 h, c terminus: native
# 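Note: 24-mer peptide tiles fused after GFP, lentivirally expressed, FACS-sorted into six equal bins by GFP/DsRed ratio, decoded by Illumina sequencing, PSI is the read-weighted mean bin number.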
Sequence,protein stability index [1],protein stability index [2],protein stability index [3],protein stability index [4]
SIIAVAMQRGARLPAEVAGLSQVL [POMT2],2.35 ± 0.59,2.01 ± 0.18,–,–
SIQKLSNESRYMIYEFWENSSVWN [NECAB1],2.15 ± 0.45,2.01 ± 0.3,–,–
SIQMNVAEVSWEPGRREGCDICAG [RPS21],2.7 ± 0.92,3.35 ± 1.3,–,–
SKDNMRTRIMIGLTLVFFVQITGQ [SLC2A12],2.55 ± 0.6,3.4 ± 0.17,–,–
SKGMQDFNYLHTNCFEITLELSCD [CPN1],2.97 ± 0.48,2.72 ± 0.58,–,–
SLASQVHAAAVNGDKGALQRLIVG [INVS],3.02 ± 0.22,3.19 ± 0.29,–,–
SLGGCSQDFLLFSPEVESLPVASS [NFE2L1],2.49 ± 0.52,2.74 ± 0.24,–,–
SLIEDSQALHKRPKLDSEYYCFG [LURAP1L],–,–,2.57 ± 0.4,3.11 ± 0.45
SLPLQDELAFAEDLVLDEEGARAA [ESRRA],3.52 ± 0.68,4.31 ± 0.58,–,–
SLRFNGRVLFIKDVIGDEICCWSF [KCTD10],2.65 ± 0.49,2.42 ± 0.45,–,–
SLRKAIETVYAAYLPKNTHPFLYL [MLH1],3.76 ± 0.68,–,–,–
SLSKKYRQDAKYLNMRSTYAKLAA [SEC22B],2.56 ± 0.24,2.62 ± 0.073,–,–
SNEQLKVTQEPRAKKGRRNQSVEP [ZMYND11],5.2 ± 0.32,5.12 ± 0.44,–,–
SNYFSMDSMEGKRSPYAGLQLGAA [TRIM29],2.88 ± 0.3,2.99 ± 0.22,–,–
SPAEDFVLVAETTMARIRRVYVSG [APMAP],2.22 ± 0.29,2.05 ± 0.42,–,–
SPEPPSLYGALNPQYEFKEAAGSF [IRX6],3.47 ± 0.24,3.6 ± 0.22,–,–
SPEVLTPQLSPGSGTPQAGTPSPS [RTN2],5.39 ± 0.31,5.45 ± 0.2,–,–
SPGLSYASHTVGFTPPTSLTRAGM [CCDC6],3.01 ± 0.12,3.37 ± 0.31,–,–
SPRLTFQCLEDLVNHYSEVADGLC [SLA],2.79 ± 0.45,3.19 ± 0.54,–,–
SPSEKNSSFTWSVPSSGYGAVTAS [SMTNL2],3.65 ± 0.18,3.74 ± 0.073,–,–
SPTSGSPRGSHSSALERLETKLHL [LURAP1L],3.64 ± 0.4,3.94 ± 0.36,–,–
SPVTTSPTAATTQNPVLSKLLMAD [LCOR],4.536 ± 0.031,4.44 ± 0.081,–,–
SPVVVEKSNSYPHQLYTSSSHHSH [KMT2E],3.76 ± 0.1,3.82 ± 0.38,–,–

Sequence,protein stability index [1],protein stability index [2],protein stability index [3],protein stability index [4]
SQDLLPPPNPYPLPQEHSQIYHCT [TBX5],4.02 ± 0.22,4.11 ± 0.22,–,–
SQMSPLSLYGENSNSLSSAEPLKE [ATF6],5.01 ± 0.3,5.03 ± 0.22,–,–
SQTEAHYSCQSKEILRYMKEFTLL [P2RY14],2.21 ± 0.15,2.3 ± 0.23,–,–
SQTPILQALQHVQASCDEAHKMKF [INTS3],3.88 ± 0.14,3.93 ± 0.21,–,–
SRQDKPLSPAGSSQEAADTPDTRH [YJU2B],5.56 ± 0.14,5.46 ± 0.13,–,–
SSAAMQSSCSSTSGGGGGGGGGGG [CCDC6],5.2 ± 0.49,5.16 ± 0.19,–,–
SSEEGWRLFKIDKEYLLKMATEE [SAT1],–,–,2.78 ± 0.62,2.88 ± 0.68
SSFPGSLPQETNLTLKVCKPQAPQ,4.09 ± 0.21,4.14 ± 0.38,–,–
SSPGNNNGTSIEDGQIPEIIFYT [BTBD1],–,–,3.14 ± 0.46,3.44 ± 0.56
SSSINSPDRASGPEGSLSQTMAGS [FAM104A],5 ± 0.16,5.04 ± 0.1,–,–
SSVYKQQWFAMLRAEQDSEVGPQE [GMCL1],4.08 ± 0.37,4.16 ± 0.24,–,–
SSWKHGSGTQYVSTRQTQSWTAVT [C18orf25],2.5 ± 0.11,2.52 ± 0.47,–,–
STQEPQSPREGEELKPEDKDPRDP [GNAS],5.59 ± 0.34,5.42 ± 0.48,–,–
STRVCLQPIRGVEGSDYINASFID [PTPRD],3.18 ± 0.29,3.25 ± 0.41,–,–
SVGTYIIDLLTFLTGQKAVKVHGL [GFOD1],3.23 ± 0.42,3.32 ± 0.54,–,–
SVLQSVWMEVLVLGVAQRSLPLQD [ESRRA],3.62 ± 0.79,3.38 ± 0.57,–,–
SWFDNGSICMRMEILGCPLPDPNN [CPXM2],2.09 ± 0.089,2.3 ± 0.47,–,–
SWIQLPPMQERRASFYACRLDKHL [KLHL14],2.32 ± 0.29,2.26 ± 0.34,–,–
SWLTRRAIRPENRAPGAGLGQDRQ [EMD],3.98 ± 0.27,4.05 ± 0.19,–,–
SYDVALHRTRLQDLRVLVSNASED [SCARA5],3.77 ± 0.18,3.93 ± 0.27,–,–
TAEDAELSDFEECEETGELFEEPA [FCHSD1],5.58 ± 0.24,5.5 ± 0.28,–,–
TAEDSNDIYILPSDNSGQVSPPES [BCL2L13],5.2 ± 0.26,5.21 ± 0.1,–,–
